Sequences and labels used below:
T1: AtSR1 (CAMTA3) CG-1 domain (Arabidopsis thaliana, UniProt Q8GSA7 1-153)
T1 sequence: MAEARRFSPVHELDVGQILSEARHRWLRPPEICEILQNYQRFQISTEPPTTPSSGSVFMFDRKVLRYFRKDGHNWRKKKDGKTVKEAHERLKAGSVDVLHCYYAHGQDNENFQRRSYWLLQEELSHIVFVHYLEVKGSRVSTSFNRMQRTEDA

B1: IAA19 promoter fragment (dsDNA)
DNA 1: AAAAAGCACGACGCGGTGCCATTACT
DNA 2: AGTAATGGCACCGCGTCGTGCTTTTT
B2: At5g41750-2 promoter fragment (dsDNA)
DNA 1: TCATTGGTCCTCGCGACTATAACAAA
DNA 2: TTTGTTATAGTCGCGAGGACCAATGA
B3: NPR1 promoter fragment (dsDNA)
DNA 1: AAAGTAAAAAACGCGGAAAGCAATAA
DNA 2: TTATTGCTTTCCGCGTTTTTTACTTT
B4: At5g41750-1 promoter fragment (dsDNA)
DNA 1: TCTTTAGTCGTCGCGAATTCTTTGGG
DNA 2: CCCAAAGAATTCGCGACGACTAAAGA
B5: SAUR41 promoter fragment (dsDNA)
DNA 1: AACGAAGGGCCCGCGCTGTACTCGAT
DNA 2: ATCGAGTACAGCGCGGGCCCTTCGTT
B6: ADR1 promoter fragment (dsDNA)
DNA 1: ATTAATCAAAACGCGTAAAAAGAGTA
DNA 2: TACTCTTTTTACGCGTTTTGATTAAT
B7: IAA1-2 promoter fragment (dsDNA)
DNA 1: AAGAAAGAAGCCGCGTCCAAAATCTT
DNA 2: AAGATTTTGGACGCGGCTTCTTTCTT
B8: DWF4 promoter fragment (dsDNA)
DNA 1: ATAAGCCTATACGCGCTCAAAGTATG
DNA 2: CATACTTTGAGCGCGTATAGGCTTAT
B9: PDF1.4 promoter fragment (dsDNA)
DNA 1: CGTGAAAGTCACGCGCCAAGAACAAA
DNA 2: TTTGTTCTTGGCGCGTGACTTTCACG

The data set deals with T1, AtSR1 (CAMTA3) CG-1 domain. The data set is described as follows: EMSA; EMSA; buffer, salt, pH and temperature not given in the material. As to conditions: protein: recombinant; tags: 6His (pET32a-derived plasmid). (Mobility shift assays separate free from complexed probe on a gel.)
For B1, the binding result is on record as “binds”.

As for B2, the binding result is “binds”.

Turning to B3, the binding result is listed as “binds”.

In the case of B4, the binding result was “no binding”.

On to B5, for which the binding result is on record as “no binding”.

Consider B6, for which the binding result is “binds”.

Turning to B7, the binding result is “binds”.

Take B8: the binding result is on record as “binds”.

As to B9, the binding result is “binds”.

These data come from article PMC6032152, “Ca2+/Calmodulin-Dependent AtSR1/CAMTA3 Plays Critical Roles in Balancing Plant Growth and Immunity”.
